Laboratory results reported in PMC10916880 (Molecular Biology of the Cell, 2024).

B1: truncated mouse Kif21a-917 fused to GFP (domain or fragment, UniProt Q9QXL2 1-917, looked up)
chain: MLGAADESSVRVAVRIRPQLAKEKIEGCHICTSVTPGEPQVFLGKDKAFTFDYVFDIDSQQEQIYTQCIEKLIEGCFEGYNATVFAYGQTGAGKTYTMGTGFDVNIMEEEQGIISRAVRHLFKSIDEKKTSAIKNGLPPPEFKVNAQFLELYNEEVLDLFDTTRDIDAKNKKSNIRIHEDSTGGIYTVGVTTRTVNTEPEMMQCLKLGALSRTTASTQMNVQSSRSHAIFTIHVCQTRVCPQTDAENATDNKLISESSPMNEFETLTAKFHFVDLAGSERLKRTGATGERAKEGISINCGLLALGNVISALGDKSKRATHVPYRDSKLTRLLQDSLGGNSQTIMIACVSPSDRDFMETLNTLKYANRARNIKNKVMVNQDRASQQINALRSEITRLQMELMEYKTGKRIIDEEGVESINDMFHENAMLQTENNNLRVRIKAMQETVDALRARITQLVSEQANQVLARAGEGNEEISNMIHSYIKEIEDLRAKLLESEAVNENLRKNLTRATARSPYFSASSAFSPTILSSDKETIEIIDLAKKDLEKLKRKEKKKKKRLQKLEESGREERSVAGKDDNADTDQEKKEEKGVSEKENNELDVEENQEVSDHEDEEEEEEDEEEEDDIEGEESSDESDSESDEKANYQADLANITCEIAIKQKLIDELENSQKRLQTLKKQYEEKLMMLQHKIRDTQLERDQVLQNLGSVESYSEEKAKKVKCEYEKKLHAMNKELQRLQTAQKEHARLLKNQSQYEKQLKKLQQDVMEMKKTKVRLMKQMKEEQEKARLTESRRNREIAQLKKDQRKRDHQLRLLEAQKRNQEVVLRRKTEEVTALRRQVRPMSDKVAGKVTRKLSSSESPAPDTGSSAASGEADTSRPGTQQKMRIPVARVQALPTPTTNGTRKKYQRKGFTGRVFT
B2: full-length mouse Kif21a fused to GFP (natural protein, UniProt Q9QXL2 1-1672, looked up)
chain: MLGAADESSVRVAVRIRPQLAKEKIEGCHICTSVTPGEPQVFLGKDKAFTFDYVFDIDSQQEQIYTQCIEKLIEGCFEGYNATVFAYGQTGAGKTYTMGTGFDVNIMEEEQGIISRAVRHLFKSIDEKKTSAIKNGLPPPEFKVNAQFLELYNEEVLDLFDTTRDIDAKNKKSNIRIHEDSTGGIYTVGVTTRTVNTEPEMMQCLKLGALSRTTASTQMNVQSSRSHAIFTIHVCQTRVCPQTDAENATDNKLISESSPMNEFETLTAKFHFVDLAGSERLKRTGATGERAKEGISINCGLLALGNVISALGDKSKRATHVPYRDSKLTRLLQDSLGGNSQTIMIACVSPSDRDFMETLNTLKYANRARNIKNKVMVNQDRASQQINALRSEITRLQMELMEYKTGKRIIDEEGVESINDMFHENAMLQTENNNLRVRIKAMQETVDALRARITQLVSEQANQVLARAGEGNEEISNMIHSYIKEIEDLRAKLLESEAVNENLRKNLTRATARSPYFSASSAFSPTILSSDKETIEIIDLAKKDLEKLKRKEKKKKKRLQKLEESGREERSVAGKDDNADTDQEKKEEKGVSEKENNELDVEENQEVSDHEDEEEEEEDEEEEDDIEGEESSDESDSESDEKANYQADLANITCEIAIKQKLIDELENSQKRLQTLKKQYEEKLMMLQHKIRDTQLERDQVLQNLGSVESYSEEKAKKVKCEYEKKLHAMNKELQRLQTAQKEHARLLKNQSQYEKQLKKLQQDVMEMKKTKVRLMKQMKEEQEKARLTESRRNREIAQLKKDQRKRDHQLRLLEAQKRNQEVVLRRKTEEVTALRRQVRPMSDKVAGKVTRKLSSSESPAPDTGSSAASGEADTSRPGTQQKMRIPVARVQALPTPTTNGTRKKYQRKGFTGRVFTSKTARMKWQLLERRVTDIIMQKMTISNMEADMNRLLRQREELTKRREKLSKRREKIVKESGEGDKSVANIIEEMESLTANIDYINDSIADCQANIMQMEEAKEEGETLDVTAVINACTLTEARYLLDHFLSMGINKGLQAAQKEAQIKVLEGRLKQTEITSATQNQLLFHMLKEKAELNPELDALLGHALQDLDGAPPENEEDSSEEDGPLHSPGSEGSTLSSDLMKLCGEVKPKNKARRRTTTQMELLYADSSEVASDTSAGDASLSGPLAPVAEGQEIGMNTETSGTSARDKELLAPSGLPSKIGSISRQSSLSEKKVPEPSPVTRRKAYEKADKPKAKEHKHSDSGASETSLSPPSSPPSRPRNELNVFNRLTVPQGTPSVQQDKSDESDSSLSEVHRGIINPFPACKGVRASPLQCVHIAEGHTKAVLCVDSTDDLLFTGSKDRTCKVWNLVTGQEIMSLGVHPNNVVSVKYCNYTSLVFTVSTSYIKVWDIRESAKCIRTLTSSGQVTLGEACSASTSRTVAIPSGESQINQIALNPTGTFLYAASGNAVRMWDLKRFQSTGKLTGHLGPVMCLTVDQISNGQDLIITGSKDHYIKMFDVTEGALGTVSPTHNFEPPHYDGIEALAIQGDNLFSGSRDNGIKKWDLAQKGLLQQVPNAHKDWVCALGLVPGHPVLLSGCRGGILKLWNVDTFVPVGEMRGHDSPINAICVNSTHVFTAADDRTVRIWKAHNLQDGQLSDTGDLGEDIASN

Experiments:
[1] = target: microtubules assembled from purified wildtype yeast tubulin (Tub1/Tub2 heterodimer) (yeast, UniProt P09733 1-447; P02557 1-457); test: single-molecule TIRF microscopy of kinesin-GFP on surface-attached microtubules
[2] = target: microtubules assembled from purified beta-R380C yeast tubulin (Tub1/Tub2-R380C) (yeast, UniProt P09733 1-447; P02557 1-457, R380C); test: as above

Row | fold increase in binding relative to full-length Kif21a [1] | increase in binding frequency relative to wildtype microtubules [2] | increase in plus-end dwell time relative to wildtype microtubules [2] | plus-end dwell time relative to wildtype microtubules, high salt [2] | plus-end dwell time relative to wildtype microtubules [2] | Binder
1 | ~100 fold | 31% | 45% | ~2 fold |  | B1
2 |  | 29% |  |  | 2 fold | B2
